Experiment [1] has as its target T1, extracellular domain of CD47 fused to a His(×6)-Avi-tag (Homo sapiens, UniProt Q08722).
T1 construct: CD47, extracellular domain; also called CD47-ECD
The experiment can be described thus: ELISA; CD47-ECD coated on plates; serial dilutions of phage-scFvs, detected with anti-M13-HRP; pH 7.4 and pH 6.0. Conditions: one partner purified. (ELISA stands for enzyme-linked immunosorbent assay.)

Experiment [2] addresses T2, cell-surface CD47 on Raji, Jurkat and MDA-231 tumor cells (human (endogenous in Raji, Jurkat, …, UniProt Q08722)).
T2 construct: CD47 endogenous on human tumor cell lines
Kind of experiment: flow cytometry on cells; serially diluted antibodies (hIgG1 form) incubated with CHO-CD47 or tumor cells, detected with goat anti-human IgG-FITC; pH 6.8 and pH 7.4 separately. As to conditions: one partner purified.

Experiment [3] has as its target T3, full-length human CD47 stably expressed on CHO cells (CHO-hCD47) (human, UniProt Q08722).
T3 construct: full-length human CD47, stably expressed on CHO cells; also called CHO-CD47; cell-surface CD47; source: CHO cells, stably expressing, on cells
The description is as above. As to conditions: one partner purified.

The target in experiment [4] is T1, extracellular domain of CD47 fused to a …. Kind of experiment: ELISA; CD47-ECD coated on plates; phage-scFv site saturation mutants of BC31M4, detected with anti-M13-HRP; pH 6.5 and pH 7.4. As to conditions: one partner purified.
Experiment [5] has the same target. The experiment can be described thus: SPR; Biacore T200, 25 °C; anti-human IgG immobilised on a CM5 chip, antibodies (hIgG1 form) captured, twofold serially diluted CD47-ECD injected; pH 7.4 buffer; 1:1 binding model. As to conditions: both partners purified. (In general: Surface plasmon resonance follows binding to a sensor surface in real time, without labels.)

Experiment [6] has the same target. The experiment can be described thus: SPR; Biacore T200, 25 °C; anti-human IgG immobilised on a CM5 chip, antibodies (hIgG1 form) captured, twofold serially diluted CD47-ECD injected; pH 6.8 buffer; 1:1 binding model. As to conditions: both partners purified.
Experiment [7] has the same target. The experiment can be described thus: ELISA; CD47-ECD coated on plates; serial dilutions of BC31M4 mutants in hIgG1 form; pH 7.4 and pH 6.8. As to conditions: both partners purified.
The target in experiment [8] is T3, full-length human CD47 stably expressed …. The experiment can be described thus: flow cytometry on cells; blocking assay of BC27: serially diluted antibody incubated with cells in the presence of bio-SIRPα-Fc, detected with streptavidin-FITC; pH 6.0, 6.5, 6.9 and 7.4; up to 1 µM antibody. As to conditions: one partner purified. Background: In flow cytometry, cells or beads pass a laser one at a time.

T1 sequence (Q08722 whole entry, looked up, the tested form may be a part): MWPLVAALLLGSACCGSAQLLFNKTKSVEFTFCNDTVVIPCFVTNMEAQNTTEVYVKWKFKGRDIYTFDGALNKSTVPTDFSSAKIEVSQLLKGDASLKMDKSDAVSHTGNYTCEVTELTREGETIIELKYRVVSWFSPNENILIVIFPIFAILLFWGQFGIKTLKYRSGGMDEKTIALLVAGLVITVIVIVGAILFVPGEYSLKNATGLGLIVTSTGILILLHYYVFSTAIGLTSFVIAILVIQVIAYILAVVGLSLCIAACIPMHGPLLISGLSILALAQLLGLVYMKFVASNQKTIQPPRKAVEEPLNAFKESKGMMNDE
T3 sequence (Q08722 19-323): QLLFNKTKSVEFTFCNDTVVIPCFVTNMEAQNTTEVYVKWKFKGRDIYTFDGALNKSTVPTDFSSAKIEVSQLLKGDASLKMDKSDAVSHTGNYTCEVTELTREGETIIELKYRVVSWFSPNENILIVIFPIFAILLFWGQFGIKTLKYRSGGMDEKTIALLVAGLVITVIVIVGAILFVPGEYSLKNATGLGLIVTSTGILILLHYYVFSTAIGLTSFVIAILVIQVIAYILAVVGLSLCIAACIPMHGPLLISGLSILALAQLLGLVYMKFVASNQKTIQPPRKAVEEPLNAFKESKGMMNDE
T2 sequence (Q08722 19-323): as above

B1: BC27 (phage-scFv form) (scFv, V domains shown)
VH: QVQLVQSGAEVKKPGASVKVSCKASGYTFTSYGISWVRQAPGQGLEWMGWISAYNGNTNYAQKLQGRVTMTTDTSTSTAYMELRSLRSDDTAVYYCARGKVYFDYWGQGTLVTVSS
VL: EIVLTQSPATLSLSPGERATLSCRASQSLSRNHLAWYQQKPGQPPRLLIHWASTRESGVPDRFSGSGSGTDFTLTISSLQAEDVAVYYCQQYYTASWTFGQGTKVEIK
notes: VH of BC27: as the variable region of the heavy chain of m6 (PDB 7WN8) except in HCDR3; scFv linker of the library; VL of BC27: as the variable region of the light chain of m6 (PDB 7WN8) except in LCDR3
As for B1, the binding result in experiment [1] is “binds”.

B2: BC31M4 (hIgG1 form) (antibody, V domains shown)
VH: QVQLVQSGAEVKKPGASVKVSCKASGYTFTSYGISWVRQAPGQGLEWMGWISAYNGNTNYAQKLQGRVTMTTDTSTSTAYMELRSLRSDDTAVYYCARGAVYFDYWGQGTLVTVSS
VL: EIVLTQSPATLSLSPGERATLSCRASQSLSRNHLAWYQQKPGQPPRLLIHWASTRESGVPDRFSGSGSGTDFTLTISSLQAEDVAVYYCQQHTQNTWTFGQGTKVEIK
notes: VH of BC31M4: as the variable region of the heavy chain of m6 (BC31M5, PDB 7WN8) with alanine instead of threonine at residue 108 of HCDR3 (IMGT numbering); constant region of the human IgG1 heavy chain (from the expression vector); VL of BC31M4: as the variable region of the light chain of m6 (BC31M5, PDB 7WN8); only one amino acid (heavy chain 108) differs between the two antibodies; constant …
Consider B2, for which the binding result in experiment [2] and in experiment [3] was “binds” each time.

B3: BC31M4 (phage-scFv form) with VL H38 replaced by arginine (scFv, V domains shown)
VH: QVQLVQSGAEVKKPGASVKVSCKASGYTFTSYGISWVRQAPGQGLEWMGWISAYNGNTNYAQKLQGRVTMTTDTSTSTAYMELRSLRSDDTAVYYCARGAVYFDYWGQGTLVTVSS
VL: EIVLTQSPATLSLSPGERATLSCRASQSLSRNRLAWYQQKPGQPPRLLIHWASTRESGVPDRFSGSGSGTDFTLTISSLQAEDVAVYYCQQHTQNTWTFGQGTKVEIK
notes: VH of BC31M4: as the variable region of the heavy chain of m6 (PDB 7WN8) with A instead of T at residue 108 of HCDR3 (IMGT numbering); scFv linker; VL of BC31M4 (as the variable region of the light chain of m6, PDB 7WN8) with H38 (LCDR1, IMGT numbering) changed
Regarding B3, in experiment [4], the binding result is recorded as “binds”.

B4: BC31M4 (phage-scFv form) with VL H38 replaced by lysine (scFv, V domains shown)
VH: QVQLVQSGAEVKKPGASVKVSCKASGYTFTSYGISWVRQAPGQGLEWMGWISAYNGNTNYAQKLQGRVTMTTDTSTSTAYMELRSLRSDDTAVYYCARGAVYFDYWGQGTLVTVSS
VL: EIVLTQSPATLSLSPGERATLSCRASQSLSRNKLAWYQQKPGQPPRLLIHWASTRESGVPDRFSGSGSGTDFTLTISSLQAEDVAVYYCQQHTQNTWTFGQGTKVEIK
notes: VH of BC31M4: as the variable region of the heavy chain of m6 (PDB 7WN8) with A instead of T at residue 108 of HCDR3 (IMGT numbering); scFv linker; VL of BC31M4 (as the variable region of the light chain of m6, PDB 7WN8) with H38 (LCDR1, IMGT numbering) changed; also called H38K
For B4, the binding result in experiment [4] was “binds”.

B5: BC31M5 (hIgG1 form) (antibody, V domains shown)
VH: QVQLVQSGAEVKKPGASVKVSCKASGYTFTSYGISWVRQAPGQGLEWMGWISAYNGNTNYAQKLQGRVTMTTDTSTSTAYMELRSLRSDDTAVYYCARGTVYFDYWGQGTLVTVSS
VL: EIVLTQSPATLSLSPGERATLSCRASQSLSRNHLAWYQQKPGQPPRLLIHWASTRESGVPDRFSGSGSGTDFTLTISSLQAEDVAVYYCQQHTQNTWTFGQGTKVEIK
notes: VH of BC31M5: as the variable region of the heavy chain of m6 (PDB 7WN8); constant region of the human IgG1 heavy chain (from the expression vector); VL of BC31M5: as the variable region of the light chain of m6 (PDB 7WN8); constant region of the light chain from the hIgG1 light-chain vector; IgG1
For the molecule B5, in experiment [5], the “pH-dependence (ratio of KD at pH 7.4 to KD at pH 6.8)” value was approximately 1.9 fold. Moreover, in experiment [6], the “fold higher binding affinity than BC31M4 at pH 6.8” value is approximately 3 fold.

B6: BC31M4 (phage-scFv form), wild type (scFv, V domains shown)
VH: QVQLVQSGAEVKKPGASVKVSCKASGYTFTSYGISWVRQAPGQGLEWMGWISAYNGNTNYAQKLQGRVTMTTDTSTSTAYMELRSLRSDDTAVYYCARGAVYFDYWGQGTLVTVSS
VL: EIVLTQSPATLSLSPGERATLSCRASQSLSRNHLAWYQQKPGQPPRLLIHWASTRESGVPDRFSGSGSGTDFTLTISSLQAEDVAVYYCQQHTQNTWTFGQGTKVEIK
notes: VH of BC31M4: as the variable region of the heavy chain of m6 (PDB 7WN8) with A instead of T at residue 108 of HCDR3 (IMGT numbering); scFv linker; VL of BC31M4: as the variable region of the light chain of m6 (PDB 7WN8); also called wild-type BC31M4
Turning to B6, the binding result in experiment [4] was “binds”.

B7: BC31M4 (phage-scFv form) with VL H107 replaced by arginine (scFv, V domains shown)
VH: QVQLVQSGAEVKKPGASVKVSCKASGYTFTSYGISWVRQAPGQGLEWMGWISAYNGNTNYAQKLQGRVTMTTDTSTSTAYMELRSLRSDDTAVYYCARGAVYFDYWGQGTLVTVSS
VL: EIVLTQSPATLSLSPGERATLSCRASQSLSRNHLAWYQQKPGQPPRLLIHWASTRESGVPDRFSGSGSGTDFTLTISSLQAEDVAVYYCQQRTQNTWTFGQGTKVEIK
notes: VH of BC31M4: as the variable region of the heavy chain of m6 (PDB 7WN8) with A instead of T at residue 108 of HCDR3 (IMGT numbering); scFv linker; VL of BC31M4 (as the variable region of the light chain of m6, PDB 7WN8) with H107 (LCDR3, IMGT numbering) changed
In the case of B7, the binding result in experiment [4] is “binds”.

B8: BC31M4 (hIgG1 form) with the 55R/107R substitution (antibody, V domains shown)
VH: QVQLVQSGAEVKKPGASVKVSCKASGYTFTSYGISWVRQAPGQGLEWMGWISAYNGNTNYAQKLQGRVTMTTDTSTSTAYMELRSLRSDDTAVYYCARGAVYFDYWGQGTLVTVSS
VL: EIVLTQSPATLSLSPGERATLSCRASQSLSRNHLAWYQQKPGQPPRLLIRWASTRESGVPDRFSGSGSGTDFTLTISSLQAEDVAVYYCQQRTQNTWTFGQGTKVEIK
notes: VH of BC31M4: as the variable region of the heavy chain of m6 (PDB 7WN8) with A instead of T at residue 108 of HCDR3 (IMGT numbering); constant region of the human IgG1 heavy chain (from the expression vector); VL of BC31M4 (as the variable region of the light chain of m6, PDB 7WN8) with histidine-to-arginine substitutions, IMGT numbering; constant region of the light chain from the hIgG1 …
B8: the binding result in experiment [7] is given as “binds”.

B9: BC31M4 (phage-scFv form) with VL H107 replaced by lysine (scFv, V domains shown)
VH: QVQLVQSGAEVKKPGASVKVSCKASGYTFTSYGISWVRQAPGQGLEWMGWISAYNGNTNYAQKLQGRVTMTTDTSTSTAYMELRSLRSDDTAVYYCARGAVYFDYWGQGTLVTVSS
VL: EIVLTQSPATLSLSPGERATLSCRASQSLSRNHLAWYQQKPGQPPRLLIHWASTRESGVPDRFSGSGSGTDFTLTISSLQAEDVAVYYCQQKTQNTWTFGQGTKVEIK
notes: VH of BC31M4: as the variable region of the heavy chain of m6 (PDB 7WN8) with A instead of T at residue 108 of HCDR3 (IMGT numbering); scFv linker; VL of BC31M4 (as the variable region of the light chain of m6, PDB 7WN8) with H107 (LCDR3, IMGT numbering) changed; also called H107K
Take B9: the binding result in experiment [4] is on record as “binds”.

B10: BC31M4 (hIgG1 form) with the 38R/55R substitution (antibody, V domains shown)
VH: QVQLVQSGAEVKKPGASVKVSCKASGYTFTSYGISWVRQAPGQGLEWMGWISAYNGNTNYAQKLQGRVTMTTDTSTSTAYMELRSLRSDDTAVYYCARGAVYFDYWGQGTLVTVSS
VL: EIVLTQSPATLSLSPGERATLSCRASQSLSRNRLAWYQQKPGQPPRLLIRWASTRESGVPDRFSGSGSGTDFTLTISSLQAEDVAVYYCQQHTQNTWTFGQGTKVEIK
notes: as for B8
Turning to B10, the binding result in experiment [7] is “binds”.

B11: BC27 (hIgG1 form) (antibody, V domains shown)
VH: QVQLVQSGAEVKKPGASVKVSCKASGYTFTSYGISWVRQAPGQGLEWMGWISAYNGNTNYAQKLQGRVTMTTDTSTSTAYMELRSLRSDDTAVYYCARGKVYFDYWGQGTLVTVSS
VL: EIVLTQSPATLSLSPGERATLSCRASQSLSRNHLAWYQQKPGQPPRLLIHWASTRESGVPDRFSGSGSGTDFTLTISSLQAEDVAVYYCQQYYTASWTFGQGTKVEIK
notes: VH of BC27, parent of BC31M4 and BC31M5: as the variable region of the heavy chain of m6 (PDB 7WN8) except in HCDR3; constant region of the human IgG1 heavy chain (from the expression vector); VL of BC27: as the variable region of the light chain of m6 (PDB 7WN8) except in LCDR3; constant region of the light chain from the hIgG1 light-chain vector; IgG1; Random mutations were introduced only into …
Take B11: the binding result in experiment [8] is “binds”.

The values are drawn from article PMC9844003, “A pH-dependent anti-CD47 antibody that selectively targets solid tumors and improves therapeutic efficacy and safety” (Journal of Hematology & Oncology, 2023).
